Laboratory results taken from article PMC6751060 (mBio, 2019).

B4: RicA residues 1 to 122 (C-terminally truncated, for crystallography) (domain or fragment, B. subtilis, UniProt O31779 1-122, looked up)
chain: MTLYSKKDIVQQARNLAKMISETEEVDFFKRAEAQINENDKVSTIVNQIKALQKQAVNLKHYEKHEALKQVEAKIDALQEELEEIPVIQEFRDSQMEVNDLLQLVAHTISNQVTNEIITSTG
notes: also called truncated RicA; RicA (amino acids 1 to 122)

Tests used:
[1] = biological target: RicA of Bacillus anthracis (B. anthracis); assay: AUC
[2] = biological target: B4; assay: crystal structure; RicAF crystals; hanging drop, 18% PEG 500 MME, 8% MPD, 100 mM sodium nitrate, 100 mM MOPS, sodium HEPES pH 7.3; conditions: both partners purified
[3] = biological target: T1, RicF (YlbF) of Bacillus subtilis (B. subtilis, UniProt O34412 1-149); assay: pull-down; conditions: partners not purified
T1 construct: also called RicF^Bsu
T1 sequence (looked up): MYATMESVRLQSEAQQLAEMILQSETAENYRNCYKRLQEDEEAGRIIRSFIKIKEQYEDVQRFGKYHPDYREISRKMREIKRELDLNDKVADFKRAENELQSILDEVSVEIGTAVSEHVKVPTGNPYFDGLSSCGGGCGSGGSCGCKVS

[4] = biological target: the molecule itself; assay: SEC; […]; 20 mM Tris-HCl pH 8.0, 150 mM NaCl, 1 mM DTT
[5] = biological target: the molecule itself; assay: crystal structure

RicF of Bacillus anthracis (natural protein)
stoichiometry N [1]: 1

B1: RicF residues 1 to 121 (C-terminally truncated, for crystallography) (domain or fragment, B. subtilis, UniProt O34412 1-121, looked up)
chain: MYATMESVRLQSEAQQLAEMILQSETAENYRNCYKRLQEDEEAGRIIRSFIKIKEQYEDVQRFGKYHPDYREISRKMREIKRELDLNDKVADFKRAENELQSILDEVSVEIGTAVSEHVKV
notes: also called truncated RicF
binding result [2]: binds

B2: RicA (YmcA) of Bacillus subtilis (natural protein, B. subtilis, UniProt O31779 1-143, looked up)
chain: MTLYSKKDIVQQARNLAKMISETEEVDFFKRAEAQINENDKVSTIVNQIKALQKQAVNLKHYEKHEALKQVEAKIDALQEELEEIPVIQEFRDSQMEVNDLLQLVAHTISNQVTNEIITSTGGDLLKGETGSKVKHSNNSCSL
notes: also called RicA^Bsu
binding result [3]: binds

B3: RicA (YmcA) of Bacillus subtilis, expressed alone and purified (natural protein, B. subtilis)
chain: MTLYSKKDIVQQARNLAKMISETEEVDFFKRAEAQINENDKVSTIVNQIKALQKQAVNLKHYEKHEALKQVEAKIDALQEELEEIPVIQEFRDSQMEVNDLLQLVAHTISNQVTNEIITSTGGDLLKGETGSKVKHSNNSCSL
notes: also called RicA dimer; GST-RicA
stoichiometry N [4]: 2

B4
binding result [5]: binds
